Results taken from publication PMC5270629 (Thrombosis research, 2015).

Biological target: T1, human fibrinogen (human, UniProt P02671-2 20-644; P02675 31-491; P02679-2 27-437)
T1 sequence (looked up) 1: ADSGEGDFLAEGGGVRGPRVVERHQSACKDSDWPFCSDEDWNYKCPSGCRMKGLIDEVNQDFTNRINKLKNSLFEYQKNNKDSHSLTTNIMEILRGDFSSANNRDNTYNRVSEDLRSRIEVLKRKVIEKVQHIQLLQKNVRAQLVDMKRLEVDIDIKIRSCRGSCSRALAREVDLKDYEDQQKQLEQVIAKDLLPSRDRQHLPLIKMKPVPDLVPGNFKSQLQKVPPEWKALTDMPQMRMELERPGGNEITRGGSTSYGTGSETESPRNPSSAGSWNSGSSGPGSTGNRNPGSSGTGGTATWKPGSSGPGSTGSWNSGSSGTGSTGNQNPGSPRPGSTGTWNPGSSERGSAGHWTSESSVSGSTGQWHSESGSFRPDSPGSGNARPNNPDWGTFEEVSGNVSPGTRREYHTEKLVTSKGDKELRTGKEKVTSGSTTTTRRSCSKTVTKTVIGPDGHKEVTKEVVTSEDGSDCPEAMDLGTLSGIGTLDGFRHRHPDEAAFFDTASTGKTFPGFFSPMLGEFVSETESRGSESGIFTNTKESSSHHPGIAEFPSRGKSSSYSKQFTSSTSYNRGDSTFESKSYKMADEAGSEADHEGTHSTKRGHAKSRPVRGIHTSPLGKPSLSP
T1 sequence (looked up) 2: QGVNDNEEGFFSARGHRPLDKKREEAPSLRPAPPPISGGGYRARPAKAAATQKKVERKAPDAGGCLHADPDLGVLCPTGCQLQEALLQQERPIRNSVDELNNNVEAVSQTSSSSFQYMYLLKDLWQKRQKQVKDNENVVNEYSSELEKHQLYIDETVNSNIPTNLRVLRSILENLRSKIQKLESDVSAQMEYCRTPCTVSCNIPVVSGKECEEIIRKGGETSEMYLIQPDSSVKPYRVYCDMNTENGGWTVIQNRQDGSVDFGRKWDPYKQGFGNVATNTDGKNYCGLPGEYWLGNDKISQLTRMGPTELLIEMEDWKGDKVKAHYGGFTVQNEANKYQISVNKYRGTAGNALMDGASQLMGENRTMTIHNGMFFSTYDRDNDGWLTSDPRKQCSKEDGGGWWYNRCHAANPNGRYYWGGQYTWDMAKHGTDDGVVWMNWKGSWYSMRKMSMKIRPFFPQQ
T1 sequence (looked up) 3: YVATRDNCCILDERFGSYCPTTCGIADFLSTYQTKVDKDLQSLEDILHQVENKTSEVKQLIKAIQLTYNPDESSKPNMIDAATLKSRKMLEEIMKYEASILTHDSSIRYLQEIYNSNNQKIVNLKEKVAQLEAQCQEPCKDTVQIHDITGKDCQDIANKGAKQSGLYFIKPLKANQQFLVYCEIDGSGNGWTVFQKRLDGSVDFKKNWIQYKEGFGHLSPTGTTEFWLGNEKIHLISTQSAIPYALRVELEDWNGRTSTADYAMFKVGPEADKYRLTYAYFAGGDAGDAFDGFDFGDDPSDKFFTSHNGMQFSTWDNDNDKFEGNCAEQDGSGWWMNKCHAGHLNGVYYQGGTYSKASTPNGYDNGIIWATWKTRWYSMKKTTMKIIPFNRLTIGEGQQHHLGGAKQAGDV
Experiment: SPR

- Kd: 125 ± 30 nM
B1: recombinant von Willebrand factor (VWF) A2 domain polypeptide, A2_(1481-1668) (domain or fragment)
chain: GLLGVSTLGPKRNSMVLDVAFVLEGSDKIGEADFNRSKEFMEEVIQRMDVGQDSIHVTVLQYSYMVTVEYPFSEAQSKGDILQRVREIRYQGGNRTNTGLALRYLSDHSFLVSQGDREQAPNLVYMVTGNPASDEIKRLPGDIQVVPIGVGPNANVQELERIGWPNAPILIQDFETLPREAPDLVLQR
